Results taken from patent publication US10287317B2, “Proprotein convertase subtilisin kexin type 9 (PCSK9) allosteric binding ligands to modulate serum low density lipoprotein (LDL) levels” (SRX Cardio, LLC, priority 2013, dated 2019).
Where no end group is shown, it is not given here.

Assays:
PCSK9 GOF-D374Y protein = PCSK9 GOF-D374Y protein (Homo sapiens, UniProt Q8NBP7, D374Y); experiment: Cellular diI-LDL uptake in HepG2 cells with PCSK9 GOF-D374Y; type: cell-based
Description: […] After 16 h, dil-LDL (5 ug/ml) was added to the incubation mixtures. After 4 h, fluorescence was measured (Ex: 520 nm/Em: 575 nm; cutoff: 550 nm). Dil-LDL uptake is calculated as RFU corrected for the number of cells.
After 16 h, dil-LDL (5 ug/ml) was added to the incubation mixtures. After 4 h, fluorescence was measured (Ex: 520 nm/Em: 575 nm; cutoff: 550 nm). Dil-LDL uptake is calculated as RFU corrected for the number of cells. The PCSK9 and −/+SRX55 [SEQ ID NO: 2] mixtures were pre-incubated for 3 hrs at 37 C prior to addition to the cells.
LDL internalization was measured by uptake of a fluorescently tagged LDL molecule (diI-LDL) in the absence of exogenous PCSK9 (Cnt), in the presence of exogenous PCSK9 (normal PCSK9=WT, D374Y mutant PCSK9=DY), or in the presence of PCSK9 and a tested peptide (indicated as SRX##, or SRX if a single peptide results is shown in a graph). […]
Peptide activity was assessed by culturing cells with: i) no SRX peptide/PCSK9 protein complex (control, Cnt); ii) PCSK9 protein; and iii) SRX peptide/PCSK9 complex. […]
Cells were cultured using one of the combinations of conditions described in the preceding paragraph for 16 hours. […] Cell specimens were rinsed twice with PBS and then fluorescence measured with excitation at 360 nm and emission detected at 460 nm to measure DNA content. […]

PCSK9-WT protein = target: T1, PCSK9-WT protein (Homo sapiens, UniProt Q8NBP7); experiment: FACS analysis of cell surface LDLR in HuH7 cells with PCSK9-WT; type: cell-based
T1 construct: V5
T1 sequence (Q8NBP7 153-692): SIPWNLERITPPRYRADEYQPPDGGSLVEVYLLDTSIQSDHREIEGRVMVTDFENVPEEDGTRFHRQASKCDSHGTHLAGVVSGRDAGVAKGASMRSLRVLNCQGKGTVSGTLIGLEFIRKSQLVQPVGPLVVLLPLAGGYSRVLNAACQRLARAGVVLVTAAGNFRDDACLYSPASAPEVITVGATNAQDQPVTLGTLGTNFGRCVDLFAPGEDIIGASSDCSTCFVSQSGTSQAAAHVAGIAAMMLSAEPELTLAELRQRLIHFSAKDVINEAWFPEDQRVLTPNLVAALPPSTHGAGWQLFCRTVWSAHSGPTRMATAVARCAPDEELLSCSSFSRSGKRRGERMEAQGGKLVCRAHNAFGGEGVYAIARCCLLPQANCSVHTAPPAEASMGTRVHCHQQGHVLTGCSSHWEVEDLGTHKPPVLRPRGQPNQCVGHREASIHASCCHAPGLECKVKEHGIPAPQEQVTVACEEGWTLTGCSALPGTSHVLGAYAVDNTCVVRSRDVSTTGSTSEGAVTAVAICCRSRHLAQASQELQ
Description: HuH7 cells were incubated for 18 h in the absence (Cnt) or presence of 0.75 μg/ml PCSK9-WT protein alone (WT) or mixed with 100 μM of various SRX peptides. The level of LDLR at the cell surface was measured by FACS using anti human LDLR Ab and a suitable secondary Ab labeled with Alexa 647. Cell surface LDLR is reported relative to Cnt. % inhibition of activity was calculated as [SRX−WT]/[Cnt−WT]×100%.
See, FIG. 1. In that experiment, the LDLR levels of a hepatocyte culture model (HuH7 cells) were measured by fluorescence activated cell sorting (FACS) in accordance with Example III. Cell surface LDLR is reported as a percentage of Basal levels of LDLR, indicated by the Cnt_Amm.Bic, Cnt_Ac.Acid, and Cnt bars in the top graph. See, FIG. 1 (top panel). LDLR levels in the presence of exogenous PCSK9 is indicated as WT_Amm.Bic, WT-Ac.Acid, and WT, and Exogenous PCSK9 in combination with a tested peptide is indicated as SRX##. The measured LDLR levels are reported as % versus basal controls (Cnt) of the respective group. […] This was further shown a percent inhibition (% inhibition was calculated as [SRX−WT]/[Cnt−WT]×100%) where positive modulation (increase) of LDLR level is reported as positive % inhibition, and negative modulation (decrease) of LDLR level is reported as negative % inhibition. See, FIG. 1 (bottom panel).
Benjannet et al., “Effects of the prosegment and pH on the activity of PCSK9: evidence for additional processing events” J Biol Chem. 285(52): 40965-40978 (2010). The cells were then washed 3× with solution A (calcium/magnesium-free Dulbecco's PBS (Invitrogen) containing 0.5% bovine serum albumin (Sigma) and 1 g/liter glucose)). The cells were then incubated for 10 min at room temperature with 1× Versene solution (Invitrogen) followed by the addition of 5 ml of solution A. The cells were then incubated for 40 min in solution A containing a human LDLR mAb-C7 (1:100; Santa Cruz Biotechnology). Following washes, the cells were then incubated for 20 min in solution A containing a secondary antibody (Alexa Fluor 647 donkey anti-mouse antibody; 1:250; Molecular Probes).
Following suspension in PBS containing 0.2% of propidium iodide, the cells were analyzed by FACS for both propidium iodide (dead cells) and LDLR in live cells with Alexa Fluor 647 using the FACS BD LSR (BD Biosciences).

Sequence of PCSK9 GOF-D374Y protein (Q8NBP7 153-692 D374Y): as the sequence (Q8NBP7 153-692) above, with D222Y counted along it

LDL internalization (dil-LDL % uptake vs Cnt) (PCSK9 GOF-D374Y protein; HepG2, 2 μg/ml PCSK9 GOF-D374Y, dose dependent manner (FIG. 5)): positively modulated (increased)
LDL internalization (dil-LDL % uptake vs Cnt) (PCSK9 GOF-D374Y protein; HepG2, D374Y 0.6 ug/ml, pre-incubated 3 hrs at 37 C, dose dependent manner (FIG. 6)): positively modulated (increased)
modulation of LDLR cell surface level (PCSK9-WT protein; HuH7 cells, FACS, exogenous WT PCSK9 plus peptide (FIG. 1, 100 μM)): positively modulate (increase)
increase of cell surface expression of LDL-R (PCSK9-WT protein; WT PCSK9, FACS in HuH7 cells): 100%
Substance: Val-Tyr-Val-Arg-Phe-Trp (VYVRFW; not fully specified (C-terminus); printed as Val-Tyr-Val-Arg-Phe-Trp) [Compound 1]
